Paper PMC11993163

What was measured:
[1] = target: PfNPM A1 (residues 1-110, up to A1 acidic tract) (Plasmodium falciparum) (UniProt C0H4U4); experiment: pull-down
[2] = target: PfNPM A3 (residues 1-170, up to A3 acidic tract) (Plasmodium falciparum) (UniProt C0H4U4); experiment: pull-down

assembled H3/H4 tetramer (from UniProt P84233 1-136; P62799 1-103) (complex)
highest NaCl concentration at which the complex was stable [1]: 600 mM NaCl
highest NaCl concentration at which the complex was stable [2]: 600 mM NaCl
